Data reported in paper PMC12000455.

Biological target: Slik coiled-coil C-terminal domain (Slik^CCD) (Drosophila)
Test: SEC; purified Slik^CCD on a Superdex 75 10/300 column in 20 mM Tris-HCl pH 7.5, 150 mM NaCl, 2 mM DTT; elution peak at 95.45 kDa

stoichiometry N: 2
Substance: Slik coiled-coil C-terminal domain (Slik^CCD) (domain or fragment)
